Assay results taken from paper PMC12881670, “Investigation into ligand selectivity and bias at the formyl peptide receptor family” (The Journal of Pharmacology and Experimental Therapeutics, 2025).
Like-named read-outs stand apart in the source and are kept apart here. One block for each molecule: values may come before it.

Tests used:
[1] = biological target: T1, FLAG-tagged human FPR1 (Hs_FPR1) (human, UniProt P21462 1-350)
T1 sequence (looked up): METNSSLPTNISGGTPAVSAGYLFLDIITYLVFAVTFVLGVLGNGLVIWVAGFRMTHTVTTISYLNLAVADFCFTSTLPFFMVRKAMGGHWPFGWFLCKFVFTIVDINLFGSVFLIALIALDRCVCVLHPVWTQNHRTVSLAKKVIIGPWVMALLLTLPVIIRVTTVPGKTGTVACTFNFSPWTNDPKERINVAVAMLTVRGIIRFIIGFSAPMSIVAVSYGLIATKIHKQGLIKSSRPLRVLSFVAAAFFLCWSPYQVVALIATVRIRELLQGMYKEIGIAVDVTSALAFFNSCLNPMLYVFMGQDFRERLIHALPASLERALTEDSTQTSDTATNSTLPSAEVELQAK

[2] = biological target: T2, FLAG-tagged mouse Fpr1 (Mm_Fpr1) (mouse, UniProt P33766 1-364)
T2 sequence (looked up): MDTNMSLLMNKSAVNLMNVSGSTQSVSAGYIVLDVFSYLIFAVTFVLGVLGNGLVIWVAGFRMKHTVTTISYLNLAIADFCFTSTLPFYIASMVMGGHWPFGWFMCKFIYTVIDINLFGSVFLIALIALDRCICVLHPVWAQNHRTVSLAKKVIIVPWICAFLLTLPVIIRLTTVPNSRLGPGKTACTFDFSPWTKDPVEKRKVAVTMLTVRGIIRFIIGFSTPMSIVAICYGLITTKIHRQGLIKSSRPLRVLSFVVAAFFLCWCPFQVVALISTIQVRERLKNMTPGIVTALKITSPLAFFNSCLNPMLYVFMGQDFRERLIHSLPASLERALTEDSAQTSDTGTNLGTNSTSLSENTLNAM

[3] = biological target: T3, FLAG-tagged human FPR2 (Hs_FPR2) (human, UniProt P25090 1-351)
T3 sequence (looked up): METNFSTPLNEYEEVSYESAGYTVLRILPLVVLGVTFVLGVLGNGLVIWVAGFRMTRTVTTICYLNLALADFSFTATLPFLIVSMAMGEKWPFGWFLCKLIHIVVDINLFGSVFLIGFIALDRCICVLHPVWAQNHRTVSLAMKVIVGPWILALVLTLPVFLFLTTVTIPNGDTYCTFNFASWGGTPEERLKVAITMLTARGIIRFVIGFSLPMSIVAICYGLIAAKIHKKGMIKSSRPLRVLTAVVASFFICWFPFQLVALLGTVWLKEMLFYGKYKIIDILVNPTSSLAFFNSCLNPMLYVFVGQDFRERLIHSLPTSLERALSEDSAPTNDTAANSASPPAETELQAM

[4] = biological target: T4, FLAG-tagged mouse Fpr2 (Mm_Fpr2) (mouse, UniProt O88536 1-351)
T4 sequence (looked up): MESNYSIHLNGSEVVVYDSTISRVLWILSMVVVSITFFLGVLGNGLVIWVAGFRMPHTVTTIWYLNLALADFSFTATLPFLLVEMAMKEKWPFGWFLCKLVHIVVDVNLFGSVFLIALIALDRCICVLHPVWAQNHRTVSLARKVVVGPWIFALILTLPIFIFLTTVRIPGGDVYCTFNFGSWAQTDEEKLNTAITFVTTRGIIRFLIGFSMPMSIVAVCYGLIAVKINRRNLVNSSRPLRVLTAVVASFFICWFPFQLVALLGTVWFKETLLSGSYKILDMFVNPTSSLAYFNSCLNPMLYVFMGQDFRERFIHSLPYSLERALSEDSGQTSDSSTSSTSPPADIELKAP

[5] = biological target: T1, FLAG-tagged human FPR1 (Hs_FPR1); remark: listed apart in the source
[6] = biological target: T2, FLAG-tagged mouse Fpr1 (Mm_Fpr1); remark: listed apart in the source
[7] = biological target: T3, FLAG-tagged human FPR2 (Hs_FPR2); remark: listed apart in the source
[8] = biological target: T1, FLAG-tagged human FPR1 (Hs_FPR1); experiment: flow cytometry on cells; competition binding: HEK293 cells stably expressing the receptor, lifted in PBS, on ice 90 min with 10 nM K(5/6-FAM)-WKYMVm and increasing unlabeled ligand; mean fluorescence of 5000 cells as % of that without competitor; One site-Fit logIC50
[9] = biological target: T4, FLAG-tagged mouse Fpr2 (Mm_Fpr2); experiment: cell-based or functional assay
[10] = biological target: T1, FLAG-tagged human FPR1 (Hs_FPR1); experiment: cell-based or functional assay
[11] = biological target: T2, FLAG-tagged mouse Fpr1 (Mm_Fpr1); experiment: cell-based or functional assay
[12] = biological target: T3, FLAG-tagged human FPR2 (Hs_FPR2); experiment: cell-based or functional assay
[13] = biological target: T5, FLAG-Mm_Fpr2 C-terminally fused to Renilla Luciferase 8 (mouse, UniProt O88536 1-351); experiment: cell-based or functional assay
T5 sequence (looked up): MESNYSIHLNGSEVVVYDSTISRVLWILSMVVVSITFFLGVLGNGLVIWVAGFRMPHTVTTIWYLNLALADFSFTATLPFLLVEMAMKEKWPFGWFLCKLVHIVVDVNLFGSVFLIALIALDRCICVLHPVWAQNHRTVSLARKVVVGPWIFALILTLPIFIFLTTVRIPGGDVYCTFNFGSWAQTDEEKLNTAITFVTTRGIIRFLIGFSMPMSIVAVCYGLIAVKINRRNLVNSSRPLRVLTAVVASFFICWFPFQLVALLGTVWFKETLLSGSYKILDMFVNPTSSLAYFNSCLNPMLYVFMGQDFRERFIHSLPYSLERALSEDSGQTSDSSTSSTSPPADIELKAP

[14] = biological target: T6, FLAG-Hs_FPR1 C-terminally fused to Renilla Luciferase 8 (human, UniProt P21462 1-350); experiment: cell-based or functional assay
T6 sequence (looked up): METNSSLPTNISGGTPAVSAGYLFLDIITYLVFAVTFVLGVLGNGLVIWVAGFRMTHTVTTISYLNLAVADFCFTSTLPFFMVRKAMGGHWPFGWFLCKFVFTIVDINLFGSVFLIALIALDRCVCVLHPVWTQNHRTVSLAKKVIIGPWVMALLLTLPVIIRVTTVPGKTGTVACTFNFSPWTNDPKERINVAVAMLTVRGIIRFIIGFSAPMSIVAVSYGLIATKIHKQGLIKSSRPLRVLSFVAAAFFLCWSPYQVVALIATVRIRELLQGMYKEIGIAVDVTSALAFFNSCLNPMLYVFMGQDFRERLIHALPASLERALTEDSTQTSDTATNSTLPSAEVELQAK

[15] = biological target: T7, FLAG-Hs_FPR2 C-terminally fused to Renilla Luciferase 8 (human, UniProt P25090 1-351); experiment: cell-based or functional assay
T7 sequence (looked up): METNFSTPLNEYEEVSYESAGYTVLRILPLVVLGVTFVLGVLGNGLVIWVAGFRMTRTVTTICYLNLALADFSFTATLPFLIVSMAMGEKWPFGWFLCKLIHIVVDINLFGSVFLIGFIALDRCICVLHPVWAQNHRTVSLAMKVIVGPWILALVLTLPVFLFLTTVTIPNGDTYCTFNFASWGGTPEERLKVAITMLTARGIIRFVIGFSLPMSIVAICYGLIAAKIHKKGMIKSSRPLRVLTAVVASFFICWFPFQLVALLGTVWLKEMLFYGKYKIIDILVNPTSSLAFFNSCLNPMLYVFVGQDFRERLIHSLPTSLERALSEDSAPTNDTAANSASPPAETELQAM

[16] = biological target: T8, FLAG-Mm_Fpr1 C-terminally fused to Renilla Luciferase 8 (mouse, UniProt P33766 1-364); experiment: cell-based or functional assay
T8 sequence (looked up): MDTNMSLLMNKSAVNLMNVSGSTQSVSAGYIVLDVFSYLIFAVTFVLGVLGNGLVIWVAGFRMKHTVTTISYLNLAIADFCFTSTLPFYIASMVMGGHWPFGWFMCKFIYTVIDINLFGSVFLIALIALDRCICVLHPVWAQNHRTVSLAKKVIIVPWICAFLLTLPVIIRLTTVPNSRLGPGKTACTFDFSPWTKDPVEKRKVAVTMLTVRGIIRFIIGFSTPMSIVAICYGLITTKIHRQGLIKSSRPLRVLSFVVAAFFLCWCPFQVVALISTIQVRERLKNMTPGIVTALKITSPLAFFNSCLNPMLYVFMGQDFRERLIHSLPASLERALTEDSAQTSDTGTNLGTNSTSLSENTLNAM

[17] = biological target: T4, FLAG-tagged mouse Fpr2 (Mm_Fpr2); experiment: flow cytometry on cells; competition binding: HEK293 cells stably expressing the receptor, lifted in PBS, on ice 90 min with 10 nM K(5/6-FAM)-WKYMVm and increasing unlabeled ligand; mean fluorescence of 5000 cells as % of that without competitor; One site-Fit logIC50
[18] = biological target: T2, FLAG-tagged mouse Fpr1 (Mm_Fpr1); experiment: as above
[19] = biological target: T3, FLAG-tagged human FPR2 (Hs_FPR2); experiment: as above
[20] = biological target: T4, FLAG-tagged mouse Fpr2 (Mm_Fpr2); experiment: cell-based or functional assay; remark: listed apart in the source
[21] = biological target: T1, FLAG-tagged human FPR1 (Hs_FPR1); experiment: cell-based or functional assay; remark: listed apart in the source
[22] = biological target: T2, FLAG-tagged mouse Fpr1 (Mm_Fpr1); experiment: cell-based or functional assay; remark: listed apart in the source
[23] = biological target: T3, FLAG-tagged human FPR2 (Hs_FPR2); experiment: cell-based or functional assay; remark: listed apart in the source
[24] = biological target: T5, FLAG-Mm_Fpr2 C-terminally fused to …; experiment: cell-based or functional assay; remark: listed apart in the source
[25] = biological target: T6, FLAG-Hs_FPR1 C-terminally fused to …; experiment: cell-based or functional assay; remark: listed apart in the source
[26] = biological target: T7, FLAG-Hs_FPR2 C-terminally fused to …; experiment: cell-based or functional assay; remark: listed apart in the source
[27] = biological target: T8, FLAG-Mm_Fpr1 C-terminally fused to …; experiment: cell-based or functional assay; remark: listed apart in the source

ERK1/2 phosphorylation (Western blot): Emax (% of 1 μM WKYMVm) [1]: 143%
ERK1/2 phosphorylation (Western blot): Log EC50 (M) [1]: -8.91 log M
ERK1/2 phosphorylation (Western blot): Emax (% of 1 μM WKYMVm) [2]: 72.7%
ERK1/2 phosphorylation (Western blot): Log EC50 (M) [2]: -5.64 log M
ERK1/2 phosphorylation (Western blot): Emax (% of 1 μM WKYMVm) [3]: 40.2%
ERK1/2 phosphorylation (Western blot): Log EC50 (M) [3]: -4.82 log M
receptor internalization (flow cytometry): Emax (% of 1 μM WKYMVm) [4]: 54.4%
receptor internalization (flow cytometry): Log EC50 (M) [4]: -3.8 log M
receptor internalization (flow cytometry): Emax (% of 1 μM WKYMVm) [5]: 92.1%
receptor internalization (flow cytometry): Log EC50 (M) [5]: -7.38 log M
receptor internalization (flow cytometry): Emax (% of 1 μM WKYMVm) [6]: 92.5%
receptor internalization (flow cytometry): Log EC50 (M) [6]: -5.35 log M
receptor internalization (flow cytometry): Emax (% of 1 μM WKYMVm) [7]: 0.343%
receptor internalization (flow cytometry): Log EC50 (M) [7]: -8.95 log M
Log IC50 [8]: -6.19 log M
Max Comp (%) [8]: 88%
Molecule: fMet-Leu-Phe (fMLF) (peptide)

receptor internalization (flow cytometry): Emax (% of 1 μM WKYMVm) [9]: 75.6%
receptor internalization (flow cytometry): Log EC50 (M) [9]: -6.96 log M
receptor internalization (flow cytometry): Emax (% of 1 μM WKYMVm) [10]: 101%
receptor internalization (flow cytometry): Emax (% of 1 μM WKYMVm) [11]: 99.4%
receptor internalization (flow cytometry): Log EC50 (M) [11]: -6.29 log M
receptor internalization (flow cytometry): Emax (% of 1 μM WKYMVm) [12]: 82.3%
BRET of receptor-RLuc8 with Arrestin 3-YFP: Emax (% of 1 μM WKYMVm) [13]: 94.3%
BRET of receptor-RLuc8 with Arrestin 3-YFP: Log EC50 (M) [13]: -6.59 log M
BRET of receptor-RLuc8 with Arrestin 3-YFP: Emax (% of 1 μM WKYMVm) [14]: 75%
BRET of receptor-RLuc8 with Arrestin 3-YFP: Emax (% of 1 μM WKYMVm) [15]: 94.8%
BRET of receptor-RLuc8 with Arrestin 3-YFP: Emax (% of 1 μM WKYMVm) [16]: 83.1%
BRET of receptor-RLuc8 with Arrestin 3-YFP: Log EC50 (M) [16]: -5.56 log M
Log IC50 [17]: -6.23 log M
Max Comp (%) [17]: 100%
Max Comp (%) [8]: 94.9%
Log IC50 [18]: -5.55 log M
Max Comp (%) [18]: 85.4%
Max Comp (%) [19]: 99.8%
ERK1/2 phosphorylation (Western blot): Emax (% of 1 μM WKYMVm) [20]: 128%
ERK1/2 phosphorylation (Western blot): Log EC50 (M) [20]: -7.91 log M
ERK1/2 phosphorylation (Western blot): Emax (% of 1 μM WKYMVm) [21]: 141%
ERK1/2 phosphorylation (Western blot): Emax (% of 1 μM WKYMVm) [22]: 118%
ERK1/2 phosphorylation (Western blot): Log EC50 (M) [22]: -7.08 log M
ERK1/2 phosphorylation (Western blot): Emax (% of 1 μM WKYMVm) [23]: 125%
BRET of receptor-RLuc8 with Venus-mGsi: Emax (% of 1 μM WKYMVm) [24]: 87.9%
BRET of receptor-RLuc8 with Venus-mGsi: Log EC50 (M) [24]: -6.49 log M
BRET of receptor-RLuc8 with Venus-mGsi: Emax (% of 1 μM WKYMVm) [25]: 44.1%
BRET of receptor-RLuc8 with Venus-mGsi: Emax (% of 1 μM WKYMVm) [26]: 79.2%
BRET of receptor-RLuc8 with Venus-mGsi: Emax (% of 1 μM WKYMVm) [27]: 37.5%
BRET of receptor-RLuc8 with Venus-mGsi: Log EC50 (M) [27]: -5.68 log M
B1: WKYMVM (peptide)
peptide: WKYMVM
notes: synthetic hexapeptide, all L residues; also called L-enantiomer of WKYMVm; source: bought: Tocris
